B1: Ac-(06-34-18) A2A3 (peptide)
peptide: Ac-CSAAARCLHQDLC-NH2
modifications: linker 1-7-13 via TBMB
SMILES: CC(=O)N[C@H]1CSCc2cc3cc(c2)CSC[C@H](NC(=O)[C@H](CCCNC(=N)N)NC(=O)[C@H](C)NC(=O)[C@H](C)NC(=O)[C@H](C)NC(=O)[C@H](CO)NC1=O)C(=O)N[C@@H](CC(C)C)C(=O)N[C@@H](Cc1c[nH]cn1)C(=O)N[C@@H](CCC(N)=O)C(=O)N[C@@H](CC(=O)O)C(=O)N[C@@H](CC(C)C)C(=O)N[C@H](C(N)=O)CSC3
B2: Ac-(06-34-18) A2Q3 (peptide)
peptide: Ac-CSAQARCLHQDLC-NH2
modifications: linker 1-7-13 via TBMB
SMILES: CC(=O)N[C@H]1CSCc2cc3cc(c2)CSC[C@H](NC(=O)[C@H](CCCNC(=N)N)NC(=O)[C@H](C)NC(=O)[C@H](CCC(N)=O)NC(=O)[C@H](C)NC(=O)[C@H](CO)NC1=O)C(=O)N[C@@H](CC(C)C)C(=O)N[C@@H](Cc1c[nH]cn1)C(=O)N[C@@H](CCC(N)=O)C(=O)N[C@@H](CC(=O)O)C(=O)N[C@@H](CC(C)C)C(=O)N[C@H](C(N)=O)CSC3
B3: Ac-(06-34-18) Scram 1 (peptide)
peptide: Ac-CPSAWRCLHQDLC-NH2
modifications: linker 1-7-13 via TBMB
SMILES: CC(=O)N[C@H]1CSCc2cc3cc(c2)CSC[C@H](NC(=O)[C@H](CCCNC(=N)N)NC(=O)[C@H](Cc2c[nH]c4ccccc24)NC(=O)[C@H](C)NC(=O)[C@H](CO)NC(=O)[C@@H]2CCCN2C1=O)C(=O)N[C@@H](CC(C)C)C(=O)N[C@@H](Cc1c[nH]cn1)C(=O)N[C@@H](CCC(N)=O)C(=O)N[C@@H](CC(=O)O)C(=O)N[C@@H](CC(C)C)C(=O)N[C@H](C(N)=O)CSC3
B4: Ac-(06-34-18) Scram 2 (peptide)
peptide: Ac-CWASPRCLHQDLC-NH2
modifications: linker 1-7-13 via TBMB
SMILES: CC(=O)N[C@H]1CSCc2cc3cc(c2)CSC[C@H](NC(=O)[C@H](CCCNC(=N)N)NC(=O)[C@@H]2CCCN2C(=O)[C@H](CO)NC(=O)[C@H](C)NC(=O)[C@H](Cc2c[nH]c4ccccc24)NC1=O)C(=O)N[C@@H](CC(C)C)C(=O)N[C@@H](Cc1c[nH]cn1)C(=O)N[C@@H](CCC(N)=O)C(=O)N[C@@H](CC(=O)O)C(=O)N[C@@H](CC(C)C)C(=O)N[C@H](C(N)=O)CSC3
B5: Ac-(06-34-18) Scram 3 (peptide)
peptide: Ac-CAPWSRCLHQDLC-NH2
modifications: linker 1-7-13 via TBMB
SMILES: CC(=O)N[C@H]1CSCc2cc3cc(c2)CSC[C@H](NC(=O)[C@H](CCCNC(=N)N)NC(=O)[C@H](CO)NC(=O)[C@H](Cc2c[nH]c4ccccc24)NC(=O)[C@@H]2CCCN2C(=O)[C@H](C)NC1=O)C(=O)N[C@@H](CC(C)C)C(=O)N[C@@H](Cc1c[nH]cn1)C(=O)N[C@@H](CCC(N)=O)C(=O)N[C@@H](CC(=O)O)C(=O)N[C@@H](CC(C)C)C(=O)N[C@H](C(N)=O)CSC3
B6: Ac-(06-34-18) Scram 4 (peptide)
peptide: Ac-CWARSPCLHQDLC-NH2
modifications: linker 1-7-13 via TBMB
SMILES: CC(=O)N[C@H]1CSCc2cc3cc(c2)CSC[C@H](NC(=O)[C@@H]2CCCN2C(=O)[C@H](CO)NC(=O)[C@H](CCCNC(=N)N)NC(=O)[C@H](C)NC(=O)[C@H](Cc2c[nH]c4ccccc24)NC1=O)C(=O)N[C@@H](CC(C)C)C(=O)N[C@@H](Cc1c[nH]cn1)C(=O)N[C@@H](CCC(N)=O)C(=O)N[C@@H](CC(=O)O)C(=O)N[C@@H](CC(C)C)C(=O)N[C@H](C(N)=O)CSC3
B7: Ac-(06-34-18) NMeCys2 (peptide)
peptide: Ac-CSWPAR[NMeC]LHQDLC-NH2
modifications: linker 1-7-13 via TBMB
SMILES: CC(=O)N[C@H]1CSCc2cc3cc(c2)CSC[C@@H](C(=O)N[C@@H](CC(C)C)C(=O)N[C@@H](Cc2c[nH]cn2)C(=O)N[C@@H](CCC(N)=O)C(=O)N[C@@H](CC(=O)O)C(=O)N[C@@H](CC(C)C)C(=O)N[C@H](C(N)=O)CSC3)N(C)C(=O)[C@H](CCCNC(=N)N)NC(=O)[C@H](C)NC(=O)[C@@H]2CCCN2C(=O)[C@H](Cc2c[nH]c3ccccc23)NC(=O)[C@H](CO)NC1=O
B8: Ac-(06-34-18) NMeSer1 (peptide)
peptide: Ac-C[NMeS]WPARCLHQDLC-NH2
modifications: linker 1-7-13 via TBMB
SMILES: CC(=O)N[C@H]1CSCc2cc3cc(c2)CSC[C@H](NC(=O)[C@H](CCCNC(=N)N)NC(=O)[C@H](C)NC(=O)[C@@H]2CCCN2C(=O)[C@H](Cc2c[nH]c4ccccc24)NC(=O)[C@H](CO)N(C)C1=O)C(=O)N[C@@H](CC(C)C)C(=O)N[C@@H](Cc1c[nH]cn1)C(=O)N[C@@H](CCC(N)=O)C(=O)N[C@@H](CC(=O)O)C(=O)N[C@@H](CC(C)C)C(=O)N[C@H](C(N)=O)CSC3
B9: Ac-(06-34-18) NMeTrp2 (peptide)
peptide: Ac-CS[NMeW]PARCLHQDLC-NH2
modifications: linker 1-7-13 via TBMB
SMILES: CC(=O)N[C@H]1CSCc2cc3cc(c2)CSC[C@H](NC(=O)[C@H](CCCNC(=N)N)NC(=O)[C@H](C)NC(=O)[C@@H]2CCCN2C(=O)[C@H](Cc2c[nH]c4ccccc24)N(C)C(=O)[C@H](CO)NC1=O)C(=O)N[C@@H](CC(C)C)C(=O)N[C@@H](Cc1c[nH]cn1)C(=O)N[C@@H](CCC(N)=O)C(=O)N[C@@H](CC(=O)O)C(=O)N[C@@H](CC(C)C)C(=O)N[C@H](C(N)=O)CSC3
B10: Ac-(06-34-18) NMeSer1, NMeAla4 (peptide)
peptide: Ac-C[NMeS]WP[NMeA]RCLHQDLC-NH2
modifications: linker 1-7-13 via TBMB
SMILES: CC(=O)N[C@H]1CSCc2cc3cc(c2)CSC[C@H](NC(=O)[C@H](CCCNC(=N)N)NC(=O)[C@H](C)N(C)C(=O)[C@@H]2CCCN2C(=O)[C@H](Cc2c[nH]c4ccccc24)NC(=O)[C@H](CO)N(C)C1=O)C(=O)N[C@@H](CC(C)C)C(=O)N[C@@H](Cc1c[nH]cn1)C(=O)N[C@@H](CCC(N)=O)C(=O)N[C@@H](CC(=O)O)C(=O)N[C@@H](CC(C)C)C(=O)N[C@H](C(N)=O)CSC3
B11: Ac-(06-34-18) NMeAla4 (peptide)
peptide: Ac-CSWP[NMeA]RCLHQDLC-NH2
modifications: linker 1-7-13 via TBMB
SMILES: CC(=O)N[C@H]1CSCc2cc3cc(c2)CSC[C@H](NC(=O)[C@H](CCCNC(=N)N)NC(=O)[C@H](C)N(C)C(=O)[C@@H]2CCCN2C(=O)[C@H](Cc2c[nH]c4ccccc24)NC(=O)[C@H](CO)NC1=O)C(=O)N[C@@H](CC(C)C)C(=O)N[C@@H](Cc1c[nH]cn1)C(=O)N[C@@H](CCC(N)=O)C(=O)N[C@@H](CC(=O)O)C(=O)N[C@@H](CC(C)C)C(=O)N[C@H](C(N)=O)CSC3
B12: Ac-(06-34-18) Agp5 (peptide)
peptide: Ac-CSWPA[Agp]CLHQDLC-NH2
modifications: linker 1-7-13 via TBMB
SMILES: CC(=O)N[C@H]1CSCc2cc3cc(c2)CSC[C@H](NC(=O)[C@H](CNC(=N)N)NC(=O)[C@H](C)NC(=O)[C@@H]2CCCN2C(=O)[C@H](Cc2c[nH]c4ccccc24)NC(=O)[C@H](CO)NC1=O)C(=O)N[C@@H](CC(C)C)C(=O)N[C@@H](Cc1c[nH]cn1)C(=O)N[C@@H](CCC(N)=O)C(=O)N[C@@H](CC(=O)O)C(=O)N[C@@H](CC(C)C)C(=O)N[C@H](C(N)=O)CSC3
B13: Ac-(06-34-18) Agb5 (peptide)
peptide: Ac-CSWPA[Agb]CLHQDLC-NH2
modifications: linker 1-7-13 via TBMB
SMILES: CC(=O)N[C@H]1CSCc2cc3cc(c2)CSC[C@H](NC(=O)[C@H](CCNC(=N)N)NC(=O)[C@H](C)NC(=O)[C@@H]2CCCN2C(=O)[C@H](Cc2c[nH]c4ccccc24)NC(=O)[C@H](CO)NC1=O)C(=O)N[C@@H](CC(C)C)C(=O)N[C@@H](Cc1c[nH]cn1)C(=O)N[C@@H](CCC(N)=O)C(=O)N[C@@H](CC(=O)O)C(=O)N[C@@H](CC(C)C)C(=O)N[C@H](C(N)=O)CSC3
B14: Ac-(06-34-18) Cit5 (peptide)
peptide: Ac-CSWPA[Cit]CLHQDLC-NH2
modifications: linker 1-7-13 via TBMB
SMILES: CC(=O)N[C@H]1CSCc2cc3cc(c2)CSC[C@H](NC(=O)[C@H](CCCNC(N)=O)NC(=O)[C@H](C)NC(=O)[C@@H]2CCCN2C(=O)[C@H](Cc2c[nH]c4ccccc24)NC(=O)[C@H](CO)NC1=O)C(=O)N[C@@H](CC(C)C)C(=O)N[C@@H](Cc1c[nH]cn1)C(=O)N[C@@H](CCC(N)=O)C(=O)N[C@@H](CC(=O)O)C(=O)N[C@@H](CC(C)C)C(=O)N[C@H](C(N)=O)CSC3
B15: Ac-(06-34-18) βhomoArg5 (peptide)
peptide: Ac-CSWPA[β3hR]CLHQDLC-NH2
modifications: linker 1-7-13 via TBMB
SMILES: CC(=O)N[C@H]1CSCc2cc3cc(c2)CSC[C@H](NC(=O)C[C@H](CCCNC(=N)N)NC(=O)[C@H](C)NC(=O)[C@@H]2CCCN2C(=O)[C@H](Cc2c[nH]c4ccccc24)NC(=O)[C@H](CO)NC1=O)C(=O)N[C@@H](CC(C)C)C(=O)N[C@@H](Cc1c[nH]cn1)C(=O)N[C@@H](CCC(N)=O)C(=O)N[C@@H](CC(=O)O)C(=O)N[C@@H](CC(C)C)C(=O)N[C@H](C(N)=O)CSC3
B16: Ac-(06-34-18) Δ Arg5 (peptide)
peptide: Ac-CSWPACLHQDLC-NH2
modifications: linker 1-6-12 via TBMB
SMILES: CC(=O)N[C@H]1CSCc2cc3cc(c2)CSC[C@H](NC(=O)[C@H](C)NC(=O)[C@@H]2CCCN2C(=O)[C@H](Cc2c[nH]c4ccccc24)NC(=O)[C@H](CO)NC1=O)C(=O)N[C@@H](CC(C)C)C(=O)N[C@@H](Cc1c[nH]cn1)C(=O)N[C@@H](CCC(N)=O)C(=O)N[C@@H](CC(=O)O)C(=O)N[C@@H](CC(C)C)C(=O)N[C@H](C(N)=O)CSC3
notes: Residue ranges derived from the stated deletion of Arg5

Numbered stars: 1 amine (or outer) side, 2 acyl side, 3 side chain; on linkers, the order of the positions; unused ones are H or OH. Bridge positions count the residues as written; N and C are the ends. Square brackets hold non-standard residues; d marks the D form. NMeW = CN[C@@H](Cc1c[nH]c2ccccc12)C(=O)O; TBMB = c1c(C[*:1])cc(C[*:3])cc1C[*:2]; β3hR = N=C(N)NCCC[C@H](N)CC(=O)O; Cit = NC(=O)NCCC[C@H](N)C(=O)O; Agb = N=C(N)NCC[C@H](N)C(=O)O; Agp = N=C(N)NC[C@H](N)C(=O)O; NMeC = CN[C@@H](CS)C(=O)O; NMeS = CN[C@@H](CO)C(=O)O; NMeA = CN[C@@H](C)C(=O)O

In one assay the target is T1, human plasma Kallikrein (human, UniProt P03952 20-638, limits assumed).
T1 construct: also called hPK; human PK
T1 sequence (P03952 20-638 limits assumed): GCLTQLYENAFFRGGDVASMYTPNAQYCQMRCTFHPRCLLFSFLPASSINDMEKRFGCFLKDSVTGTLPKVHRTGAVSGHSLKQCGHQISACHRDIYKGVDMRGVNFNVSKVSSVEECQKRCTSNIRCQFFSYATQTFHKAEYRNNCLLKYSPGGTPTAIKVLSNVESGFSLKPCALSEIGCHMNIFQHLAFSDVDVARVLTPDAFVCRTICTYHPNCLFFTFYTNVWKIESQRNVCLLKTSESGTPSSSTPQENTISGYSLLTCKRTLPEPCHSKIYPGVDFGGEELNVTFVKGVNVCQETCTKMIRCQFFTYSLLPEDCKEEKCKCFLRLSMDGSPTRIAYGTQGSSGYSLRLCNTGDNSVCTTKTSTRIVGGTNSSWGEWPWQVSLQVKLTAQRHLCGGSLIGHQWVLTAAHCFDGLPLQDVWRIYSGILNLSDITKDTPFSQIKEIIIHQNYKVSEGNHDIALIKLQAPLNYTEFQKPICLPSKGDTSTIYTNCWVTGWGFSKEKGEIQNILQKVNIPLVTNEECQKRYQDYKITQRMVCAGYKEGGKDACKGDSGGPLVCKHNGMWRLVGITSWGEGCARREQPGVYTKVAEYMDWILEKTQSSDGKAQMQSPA
The assay is described as follows: enzyme inhibition assay.
Take B1: the “fold reduction of binding against Ac-06-34-18(TMB)-NH2” value is about 100000 fold.
Still for that read-out and setting: with B2 the figure was about 100000 fold.

A further assay concerns the target T1, human plasma Kallikrein. The assay is described as follows: enzyme inhibition assay. This is another data set of the same source.
As to B3, the Ki was 1090 nM.
For B4, the inhibition constant Ki came out at 11400 nM.
For the molecule B5, the affinity corresponds to a Ki of 1890 nM. Compared with the last molecule, the Ki is about 6-fold lower.
For B6, the inhibitory constant (Ki) came out at 67500 nM.
Molecule B1 showed a Ki of 18500 nM.
On the same count and under the same terms, in the case of B2 it was 15800 nM.

In the next assay the target is T1, human plasma Kallikrein. The assay is described as follows: enzyme inhibition assay. This is another data set of the same source.
The molecule B7 displayed a Ki of 418 nM. This counts as sub-micromolar.
B8 showed an inhibitory constant (Ki) of 0.5 nM.
B9 displayed an inhibition constant Ki of 228 nM.
Still for that read-out and setting: with B10 the figure was 444 nM.
B11: the Ki is 343 nM. This Ki and that of the molecule before are within 1.5-fold of each other.

Another assay has as its target T1, human plasma Kallikrein. The assay is described as follows: enzyme inhibition assay. The source holds these as a separate data set.
As for B12, the inhibition constant (Ki) turned out to be 1770 nM.
B13 returned an inhibition constant Ki of 83 nM.
Molecule B14 had an inhibitory constant (Ki) of 7860 nM.
Molecule B15 yielded a Ki of 8.2 nM.
For the molecule B16, the Ki was over 100000 nM.

Broadly, the Ki is the equilibrium dissociation constant of an inhibitor or competing ligand from its target. A higher Ki goes with lower affinity.

The record behind these values is patent US10800813 (Bicycle, dated 2020).
